The values below come from the nanobody polyreactivity screen of Harvey et al. (2022).

This series can be described thus: yeast display, Sf9 membrane polyspecificity reagent, FACS + sequencing; frameworks hold sequencing errors. The method, boiled down:
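A synthetic nanobody library was expressed on Saccharomyces cerevisiae BJ5465 by galactose induction for 36–48 hours. The library was stained for 1 hour at 4 °C with 10% biotinylated, detergent-solubilized Sf9 membrane reagent and enriched with streptavidin microbeads before FACS. Low and high (top ~1%) gates were set on anti-HA fluorescence for expression and streptavidin fluorescence for reagent binding, and each polyreactivity label reflects the gate of origin.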
Regarding “QVQLVESGGVLVQAGGSLRLSCAASGRTLRPYAMGWYRQAPGKERELVAAMTGGVSTDYADSVKGRFTISRDNAKNTVYLQRNSLKPEDTAVYYGAVDDRWFNHISGRYYEYYYWGQGTQVTVSS”, the “polyreactivity (PSR sort gate)” value is recorded as “low polyreactivity”.

As for “QVQLVESGGVLVQAGGSLRLSCAASGSIFKRNVMGWYRQAPGKERELVAAITWSGASTYYADSVKGRFTISRDNAKNTVYLQMNSLKPEDTAVYYCAARGPSRRRDGSDYWGQGTQVTVSS”, the “polyreactivity (PSR sort gate)” value is reported as “high polyreactivity”.

“QVQLVESGGVLVQAGGSLRLSCAASGSIFRTNVMGWYSQAPGKEREMVASISSDSSTNYADSVKGRFTISRDNEKNTVYLQMNSLKPEDTAVYYCAKDPVVTEHYYWGQGTQVTVSS”: the “polyreactivity (PSR sort gate)” value is on record as “low polyreactivity”.

For “QVQLVESGGVLVQAGGSLRLSCAASGSIFVYYGMGWYRQAPGKEREFVAAIWTGGSTYYADSVKGRFTISRDNAKNTVYLQMNSLKPEDTAVYYCAADRRGSHYYRYKYGYWGQGTQVTVSS”, the “polyreactivity (PSR sort gate)” value is given as “high polyreactivity”.

On to “QVQLVESGGVLVQAGGSLRLSCAASGSLFTRYAMGGYRQAPGKVRELVAAISKSGTTTYYADSVKGRFTISRDNAKNTVYLQMNSLIPEDTAVYYCAAVPIAGKMDYWGQGTQVTVSS”, for which the “polyreactivity (PSR sort gate)” value is “high polyreactivity”.

Take “QVQLVESGGVLVQAGGSLRLTCAASGFTFSRNTMGWYRQAPGKERELVAAIDSTGGSTYYADSVKGRFTISRDNAKNTVYLQMNSLKPEDTAVYYCATVLPDGRVWYEGYYWGQGTQVTVSS”: the “polyreactivity (PSR sort gate)” value is listed as “low polyreactivity”.

Turning to “QVQLVESGGVLVQEGGSLRLSCAASVSIFSRNAMGSYRQAPGKERELVAAISYSGGSTYYADSVKGRLTISRDNAKNTVYLQMNSLKPEDTEVYYCAAYGHHFQGDYNYWGQGTQVTVSS”, the “polyreactivity (PSR sort gate)” value is on record as “low polyreactivity”.

For the sequence “QVQLVESGGVLVQPRGSLRLICAASGSTLAGNAMGWYRQAPGKEREFVAAISWSGGRTYYADSVKGRFTISRDNAKMTVYLQMNRMKPEDTAVYYCAARRGQTRYQYYYWGQGTQVTVSS”, the “polyreactivity (PSR sort gate)” value is “high polyreactivity”.

In the case of “QVQLVESGGVVVQAGGSLRLSCAASGFTIDYYAMGWYRQARGQERELVATINGASYTNYADSVKGRFTISRDNAKNTVYLQMNSLKPEDTAVYYCNARYYGPDFVLAYDYWGQGTQVTVSS”, the “polyreactivity (PSR sort gate)” value is “low polyreactivity”.

As to “QVQLVESGLGLLQAGGSLRLSCAASGFIFRLYTMGRYREAPGKVRELVASISSAGSTNYADSVKGRFTISLDNAKNTVYLQMNSLKPDDTAVYDCDKYYGQFYPPTLGYWGQCTQVTVSS”, the “polyreactivity (PSR sort gate)” value was “low polyreactivity”.

In the case of “QVQLVESGRALVQAGGSLRLSCAASGRICGIYSMGWNRQAPGKEREFVAAISDRSGSRTYYADSVKGRFTISRDNAKNTVYLQMNSLKPEDTAVYYCNARHQYQTLYPGGYYWGQGTQVTVSS”, the “polyreactivity (PSR sort gate)” value is reported as “high polyreactivity”.

As to “QVQLVESGRALVQAGGSLRLSCAASGSTSRIYALGWYRQAPWKERELVAALTRSGGSTYYADSVKGRFTISRDNAKNTVYLQMNSLKPEDTAVYYCAADYRSHSRYRYDKVDYWGQGTQVTVSS”, the “polyreactivity (PSR sort gate)” value is “high polyreactivity”.

In the case of “QVQLVESGRALVQAGGSLRLSCASSVRIFVRNAMGWYRQAPGKESELVAAISARGGRTNYADSVKGRFTISRDNAKNTVYLQMNSLKPDDTAVYYCAAVGFRAAYLYDYWGQGTQVTVSS”, the “polyreactivity (PSR sort gate)” value is given as “high polyreactivity”.

As to “QVQLVESGRGIVQAGGSLRISWAASGITLAGYVMGLYRQAPGKESELVADISSSGDSTYYADSVKGRFTMSRDNAKNTVYLQMNSLKPEDTAVYYCAAKCGRTGSFDYWGQGTQVTVSS”, the “polyreactivity (PSR sort gate)” value is “low polyreactivity”.

In the case of “QVQLVESGRGIVQAGGSLRLSCAASGLTFSSNAMVWYRQAPGKEREMVAVITNGGSTNYADSVKGRFTISRDNAKNTVYLQMNSLKPEDTAVYYCAKDGGPAQDIGMDYWGQGTQVTVSS”, the “polyreactivity (PSR sort gate)” value is “low polyreactivity”.

As for “QVQLVESGRGLFQAGGSLRLSCAASGFTFSLYAMGWYRQPPGKERELVAVISYRGGSTYYAYSVKGRFTISRDNAKNTVYLQMNSLKPEVTAVYYCARVVLHFSRYWWPVDYWGQGTQVTVSS”, the “polyreactivity (PSR sort gate)” value is recorded as “high polyreactivity”.

For “QVQLVESGRGLFQAGGSLRLSCAASGSTFSGYAMGWYRPAPGKERELVATITRRGGNTYYADSVKGRFTISRDNAKNTVYLQMNSLKPEDTAVYYCSKDGRVHSPYDYWGQGTQVTVSS”, the “polyreactivity (PSR sort gate)” value is “low polyreactivity”.

With “QVQLVESGRGLGQAGGSLRLSCAASVSTFDKYDKGRSRQAPGKEREFVAAISSTGASTYYADSVKGRFTISRDNAKNTVYLQMNSLKPEDTAVYYCAADVPVGYGDDYWGQGTQVTESS”, the “polyreactivity (PSR sort gate)” value was “low polyreactivity”.

In the case of “QVQLVESGRGLVEAGGSLRLSCAASGFIFLPYAMVWYRQAPGKERELVAAITRGGRTYYADSVNRRFTISRDNAKNTVYLQMNSLKPEDTAVYDCAATTYLVWGYNYWGQGTQVTVSS”, the “polyreactivity (PSR sort gate)” value is reported as “low polyreactivity”.

Turning to “QVQLVESGRGLVQAGASLRLSCAASGRTFPYYARGRYRQAPGKERELVAAITTGGSTNYADSVKGRFTISRDNAKNTVYLQMNRLKPEDTAVYYCAKRFYRSRLNYYYWGQGTQVTVSS”, the “polyreactivity (PSR sort gate)” value is on record as “high polyreactivity”.

“QVQLVESGRGLVQAGGSLRISCASSGNTFVYNPMGWYRQAPGKERELVAAIDSGGSTNYADSVKGRFTISRDNAKNTVYLQMNSLKPEDTAVYYCNRTSVYDYYWGQGTQGTVSS”: the “polyreactivity (PSR sort gate)” value is on record as “low polyreactivity”.

With “QVQLVESGRGLVQAGGSLRLSCAASASTFTLNTMGWYREAAGKERELVAAITASGGRTFYADSVKGPFTISRDNANNTVYLQMTSLKPEDTAFYYCAKRPYGWVSRYDYWGQVTQVTVSS”, the “polyreactivity (PSR sort gate)” value was “low polyreactivity”.

In the case of “QVQLVESGRGLVQAGGSLRLSCAASGFIFGGYAMGWYRQAPGKERELVAAISRSGGSTYYADSVKGRFTISRDNAKNTVYLQMNSLKPEDTAVYYCAAKFWPEDHRLDYWGQGTQVTVSS”, the “polyreactivity (PSR sort gate)” value is reported as “low polyreactivity”.

“QVQLVESGRGLVQAGGSLRLSCAASGFIFSYYAMGWYRPAPGKERELVAAITVTGGNTNYADSVKGRFTISRDNAKNTVYLQMNSLKPEDTAVYYCAAVVRGPGVYVYDWGQGTQVTVSS”: the “polyreactivity (PSR sort gate)” value was “low polyreactivity”.

Turning to “QVQLVESGRGLVQAGGSLRLSCAASGFMIGINAMGWYRQAPGKERELVDAISTGDRTNYAHSVKGRFTISRDNAKNTVYLQMNSLKPEDTAVYYCAKDWRRNRPYEWTYDYWGQGTQVTVSS”, the “polyreactivity (PSR sort gate)” value is “low polyreactivity”.

Regarding “QVQLVESGRGLVQAGGSLRLSCAASGFTFAPNAMGWYRQAPGKDRELVARIDRAGSTYYADSVKGRFTISRDNAKNTVYLQMNSLKPEDTAVYYCATDYHGQPSPPYQSIKVDYWGQGTQVTVSS”, the “polyreactivity (PSR sort gate)” value is reported as “low polyreactivity”.

“QVQLVESGRGLVQAGGSLRLSCAASGFTFSLNAMGWYRQAPGKERELVAGISIGGSTNYADSVKGRFTISRDNAKNTVYLQMNSLKPEDTAVYYCNAYYWSATWYFAAWDYYYWGQGTQVTVSS”: the “polyreactivity (PSR sort gate)” value is reported as “high polyreactivity”.

Consider “QVQLVESGRGLVQAGGSLRLSCAASGIIFAQNAMGWYRQAPGKEMVLVAAISLDGGSTNYADSVKGRFTISRDNAKNTVYLQMNSLKPEDTAVYYCAADDGWIEPVYGYYEHEYWGQGTQVTVSS”, for which the “polyreactivity (PSR sort gate)” value was “low polyreactivity”.

Take “QVQLVESGRGLVQAGGSLRLSCAASGLTFRVYAMGWYRQAPGKERELVAAITGGGGSTYADSVKGRFTISRDNAKNTVYLQMNSLKPQDTAVYYCNKKGYYYKFDYWGQGTQVTVSS”: the “polyreactivity (PSR sort gate)” value was “low polyreactivity”.

In the case of “QVQLVESGRGLVQAGGSLRLSCAASGRIFFKYAMGRYRPAPGKERELVAAISSSGGRTSYADSVKGRFTISRDNAKNTVYLQMNSLKPEDTAVYYCNVKPSARGSPLYDYWGQGTQVTVSS”, the “polyreactivity (PSR sort gate)” value is “high polyreactivity”.

With “QVQLVESGRGLVQAGGSLRLSCAASGRIFFYYAMGWYREAPGKERELVATISYSGGGTYYADSVKGRFTISRDNAKNTVYLQMNSLKPEDTAVYYCNARWGTPYYIQDFDYWGQGTQVTVSS”, the “polyreactivity (PSR sort gate)” value is given as “low polyreactivity”.

As to “QVQLVESGRGLVQAGGSLRLSCAASGRIFGINAMGGYRQAPGKERELVAPITSGVSTNYADSVKGRFTISRDNAKNTVYLQMNSLKPGDTAVYYCAARPRWYFFSYGRQDYGYWGQGTQVTVSS”, the “polyreactivity (PSR sort gate)” value was “low polyreactivity”.

With “QVQLVESGRGLVQAGGSLRLSCAASGRIFGRNAMGWYRQAPGKESELVASITSGGGTNYADSVKGRFTISRDNAKNTVYLQMNSLKPDDTAVYDCAKQFYRPGQQSRYDYWGQGMQVTVSS”, the “polyreactivity (PSR sort gate)” value was “low polyreactivity”.

For “QVQLVESGRGLVQAGGSLRLSCAASGRIFGVYGRGWYRQAPGKERELVAAISWSGATTYYADSVKGRFTISRDNAKNTVYLQMHSLKPEDTAVYYCAADFGWFYDGVAVWFIRILGDYWGQGTQVTVSS”, the “polyreactivity (PSR sort gate)” value is on record as “low polyreactivity”.

On to “QVQLVESGRGLVQAGGSLRLSCAASGRIFYNYAMGGYRQAPGKERELVAAISSSGGSTYFADSVKGRFTISRDNAKNTVYLQMNSLKPEDTAVYYCAVRKQYSGRYYRAYDYWGQGTQVTVSW”, for which the “polyreactivity (PSR sort gate)” value is reported as “high polyreactivity”.

For “QVQLVESGRGLVQAGGSLRLSCAASGRIFYYYAMGWYRKAPRKERELVAANTETGGNTYYADSVKGRFTISRDNAKNTVYLQMNSLKPEDTAVYYCARKGRRTHHYGLYSSSVYYWGQGTQVTVSS”, the “polyreactivity (PSR sort gate)” value was “low polyreactivity”.

Turning to “QVQLVESGRGLVQAGGSLRLSCAASGRIIRWNAMGWYRQAPGKERELVAGISGSGGSTYYADSVKGRFTISRDNAKNTVYLQMNSLKPEDTAVYYCAADHYRSRYDYWGQGTQVTVSS”, the “polyreactivity (PSR sort gate)” value was “low polyreactivity”.

As for “QVQLVESGRGLVQAGGSLRLSCAASGRTFARYAIGWYRPAPGKERELVATIRRVGSTNYADSVNGRFTISRDNAKNTVYLQMNSLKPEDTAVYYCAARSLRYGRGMYYWGQGTQVTVSS”, the “polyreactivity (PSR sort gate)” value was “high polyreactivity”.

With “QVQLVESGRGLVQAGGSLRLSCAASGRTFAYYAMGWYRQAPGKERELVAGITTGGITNYADSVKGRFTISRDNAKNTVYLEMNRLKPEDTAVYYCAKANLFTYWYPGGNFDSAQSDYWGQGTQVTVSS”, the “polyreactivity (PSR sort gate)” value is “low polyreactivity”.

For the sequence “QVQLVESGRGLVQAGGSLRLSCAASGRTFPYYAMGWYRQAPGKERELVAAISSSGGSTYYADSVKGRFTISRDNAKNTVYLQMNSLKPEDTAVYYCNRYSRLYLTDDDYWGQGTLVTVSS”, the “polyreactivity (PSR sort gate)” value is “high polyreactivity”.
